Test results: US20230203155A1 (ALMAC DISCOVERY, published 2023)
Read-outs that look alike come from different tables or passages of the source. Values belong to the binder of their own block, whether it stands above or below them.

Assays:
[1] = molecular target: T1, human ROR2-hFc fusion protein (extracellular domain) (human); experiment: SPR, ROR2-hFc on chip
T1 construct: Whole entry 'human ROR2-Fc (CHO)'; also called hROR2
Description: (§1) Binding kinetics were determined using a Pioneer Surface Plasmon Resonance (SPR) instrument (SensiQ/Pall ForteBio). […] VNARs and VNAR-Fc molecules were tested at various concentrations and the Ka (M⁻¹s⁻¹), Kd (s⁻¹) and KD (nM) values were determined using QDat software (SensiQ/Pall ForteBio).
(§2) Using the procedures outlined above the binding of VNAR-Fc fusions to human, mouse and rat ROR1 and human ROR2 were determined by SPR.

[2] = molecular target: T2, human ROR1-hFc fusion protein (extracellular domain) (human); experiment: SPR, ROR1-hFc on chip
T2 construct: Whole entry 'human ROR1-Fc (CHO)'; also called hROR1; huROR1-Fc
T2 sequence (chain, as listed by the source limits assumed): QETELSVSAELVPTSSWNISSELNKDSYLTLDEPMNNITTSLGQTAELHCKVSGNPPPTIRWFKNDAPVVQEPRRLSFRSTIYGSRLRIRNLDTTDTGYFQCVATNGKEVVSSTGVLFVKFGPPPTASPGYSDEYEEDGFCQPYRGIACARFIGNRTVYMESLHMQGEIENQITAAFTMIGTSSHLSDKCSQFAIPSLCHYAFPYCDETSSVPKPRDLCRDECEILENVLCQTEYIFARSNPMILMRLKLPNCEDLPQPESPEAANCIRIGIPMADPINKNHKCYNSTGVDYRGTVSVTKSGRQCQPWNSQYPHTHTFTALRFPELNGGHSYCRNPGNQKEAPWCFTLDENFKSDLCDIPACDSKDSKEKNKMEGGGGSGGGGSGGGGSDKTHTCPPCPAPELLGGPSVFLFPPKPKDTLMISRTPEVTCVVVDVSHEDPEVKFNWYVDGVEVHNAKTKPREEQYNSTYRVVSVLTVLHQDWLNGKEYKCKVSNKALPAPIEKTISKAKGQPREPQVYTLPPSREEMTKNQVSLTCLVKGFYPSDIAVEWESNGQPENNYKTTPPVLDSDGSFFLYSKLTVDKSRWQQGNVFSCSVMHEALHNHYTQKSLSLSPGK
Description: as §1, §2

[3] = molecular target: T2, human ROR1-hFc fusion protein …; experiment: SPR, ROR1-hFc on chip; remark: listed apart in the source
Description: as §1

[4] = molecular target: T2, human ROR1-hFc fusion protein …; experiment: SPR, ROR1-hFc on chip; remark: listed apart in the source
Description: as §1

[5] = molecular target: T3, recombinant human ROR1 (hROR1), construct not stated (human, UniProt Q01973 30-403, limits assumed); experiment: SPR, hROR1 on chip
[6] = molecular target: T2, human ROR1-hFc fusion protein …; experiment: Octet or SPR, hROR1
Description: as §1
Binding kinetics were determined using a SPR (as previously described) or using Biolayer interferometry (K2 Octet instrument/Pall ForteBio). […] VNARs and VNAR-Fc molecules were tested at various concentrations and the Ka (M−1s−1), Kd (s−1) and KD (nM) values were determined using the Octet data analysis HT software (Pall ForteBio).

[7] = molecular target: T3, recombinant human ROR1 (hROR1), …; experiment: SPR, hROR1 on chip; remark: listed apart in the source
Description: (§3) Competition of binding studies were completed using SPR. […] FC2 was used as the reference channel. […] Binding kinetics were determined using QDat software.

[8] = molecular target: T4, mouse ROR1-Fc fusion protein (mouse); experiment: SPR, mouse ROR1 on chip
T4 construct: Whole entry 'mouse ROR1-Fc (CHO)'; also called mROR1
T4 sequence (chain, as listed by the source limits assumed): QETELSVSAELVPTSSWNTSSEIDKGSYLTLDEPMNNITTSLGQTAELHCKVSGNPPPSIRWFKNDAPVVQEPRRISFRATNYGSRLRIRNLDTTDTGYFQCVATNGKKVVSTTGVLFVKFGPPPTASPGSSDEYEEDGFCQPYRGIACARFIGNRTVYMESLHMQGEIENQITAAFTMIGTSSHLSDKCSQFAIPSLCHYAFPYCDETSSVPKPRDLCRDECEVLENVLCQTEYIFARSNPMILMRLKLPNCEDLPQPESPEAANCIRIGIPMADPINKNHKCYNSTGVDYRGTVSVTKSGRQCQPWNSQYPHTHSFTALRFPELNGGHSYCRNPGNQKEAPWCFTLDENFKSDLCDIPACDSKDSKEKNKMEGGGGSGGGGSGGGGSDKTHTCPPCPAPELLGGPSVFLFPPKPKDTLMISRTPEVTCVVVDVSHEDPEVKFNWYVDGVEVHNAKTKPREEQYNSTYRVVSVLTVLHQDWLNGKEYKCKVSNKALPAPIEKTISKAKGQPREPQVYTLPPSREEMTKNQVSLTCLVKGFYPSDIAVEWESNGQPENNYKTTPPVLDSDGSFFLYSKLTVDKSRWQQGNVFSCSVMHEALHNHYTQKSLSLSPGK
Description: as §1

[9] = molecular target: T2, human ROR1-hFc fusion protein …; experiment: SPR, human ROR1 ECD-Fc on chip;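 note: SPR binding kinetics of VNAR and VNAR-Fc molecules run at a range of concentrations over immobilised target, rate and affinity constants fitted with QDat software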
Description: as §1
Thermal stability assays used Applied Biosystems StepOne Real Time PCR system with the Protein Thermal Shift™ dye kit (Thermo). The assay mix was set up so that the protein was at a final concentration of 20 OA in 20 μL. 5 μL of Thermal Shift™ buffer was added alongside 2.5 uL 8× Thermal Shift™ Dye. Assays were run using the StepOne software and data analysed using Protein Thermal Shift™ software. All data are from first derivative analysis.

[10] = molecular target: T5, rat ROR1-Fc fusion protein (rat); experiment: SPR, rat ROR1 on chip
T5 construct: Whole entry 'rat ROR1-Fc (CHO)'; also called rROR1
T5 sequence (chain, as listed by the source limits assumed): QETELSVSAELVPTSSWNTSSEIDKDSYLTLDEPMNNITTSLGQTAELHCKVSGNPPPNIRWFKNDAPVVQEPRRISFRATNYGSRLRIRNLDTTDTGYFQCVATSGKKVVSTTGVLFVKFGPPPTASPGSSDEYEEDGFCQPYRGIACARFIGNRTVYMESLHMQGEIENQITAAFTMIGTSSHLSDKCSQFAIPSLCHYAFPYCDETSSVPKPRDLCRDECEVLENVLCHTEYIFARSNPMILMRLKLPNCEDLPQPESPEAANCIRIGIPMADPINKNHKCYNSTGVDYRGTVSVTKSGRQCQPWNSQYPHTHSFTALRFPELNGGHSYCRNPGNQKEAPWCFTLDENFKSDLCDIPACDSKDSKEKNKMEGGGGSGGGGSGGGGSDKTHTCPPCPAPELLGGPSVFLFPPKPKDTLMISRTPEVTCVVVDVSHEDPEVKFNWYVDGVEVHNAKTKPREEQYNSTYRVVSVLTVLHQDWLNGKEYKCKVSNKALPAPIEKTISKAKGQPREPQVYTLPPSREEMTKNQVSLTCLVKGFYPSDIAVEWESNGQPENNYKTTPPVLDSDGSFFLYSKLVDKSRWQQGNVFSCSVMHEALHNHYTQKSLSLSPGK
Description: as §1

[11] = molecular target: T6, human ROR1 on the surface of ROR1hi human cancer cell lines (human, UniProt Q01973 30-937); experiment: flow cytometry, A549 (ROR1hi) cells, 4°C
T6 construct: whole, on cells; Cell line is named under assay; also called cell surface ROR1

[12] = molecular target: T1, human ROR2-hFc fusion protein …; experiment: SPR, ROR2-hFc on chip; remark: listed apart in the source
Description: as §1
(§4) The ability of the VNAR-MMAE conjugates and VNAR-fluorescein conjugates to bind to human ROR1 ECD was determined by SPR using the procedures described above.

[13] = molecular target: T2, human ROR1-hFc fusion protein …; experiment: SPR, ROR1-hFc on chip; remark: listed apart in the source
Description: as §1, §4

[14] = molecular target: T3, recombinant human ROR1 (hROR1), …; experiment: SPR, hROR1 on chip with competitor P3A1 dimer pre-captured
Description: as §3

[15] = molecular target: T3, recombinant human ROR1 (hROR1), …; experiment: SPR, hROR1 on chip with competitor B1 pre-captured
Description: as §3

human serum albumin = molecular target: T7, human serum albumin (human, UniProt P02768 25-609); experiment: ELISA at fixed concentration
T7 construct: also called HSA

T1 sequence (chain, as listed by the source limits assumed): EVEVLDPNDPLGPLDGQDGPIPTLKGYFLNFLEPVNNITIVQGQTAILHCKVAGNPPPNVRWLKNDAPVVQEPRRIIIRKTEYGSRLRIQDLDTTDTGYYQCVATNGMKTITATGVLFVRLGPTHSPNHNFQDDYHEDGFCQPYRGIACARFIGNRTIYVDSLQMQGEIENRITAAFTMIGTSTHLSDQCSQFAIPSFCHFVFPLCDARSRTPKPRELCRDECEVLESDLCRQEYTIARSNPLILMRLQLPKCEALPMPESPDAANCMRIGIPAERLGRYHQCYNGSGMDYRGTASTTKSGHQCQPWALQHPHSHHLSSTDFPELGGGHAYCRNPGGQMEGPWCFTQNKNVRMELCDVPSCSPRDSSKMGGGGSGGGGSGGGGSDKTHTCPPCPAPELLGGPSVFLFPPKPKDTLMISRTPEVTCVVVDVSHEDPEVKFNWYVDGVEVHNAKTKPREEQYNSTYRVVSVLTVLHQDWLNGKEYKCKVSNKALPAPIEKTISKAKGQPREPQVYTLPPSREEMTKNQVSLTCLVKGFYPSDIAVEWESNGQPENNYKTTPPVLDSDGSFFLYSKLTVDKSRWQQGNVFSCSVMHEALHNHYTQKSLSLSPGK

- binding result [1]: no binding
- binding result [2]: no binding
B1: 2V mFc (Fc fusion)
chain: TRVDQTPRTATKETGESLTINCVLTDTSYGLYSTSWFRKNPGTTDWERMSIGGRYVESVNKGAKSFSLRIKDLTVADSATYYCKAQSLAISTRSYWYDGAGTVLTVNGGGGSGGGGSGGGGSEPRGPTIKPCPPCKCPAPNLLGGPSVFIFPPKIKDVLMISLSPIVTCVVVDVSEDDPDVQISWFVNNVEVHTAQTQTHREDYNSTLRVVSALPIQHQDWMSGKEFKCKVNNKDLPAPIERTISKPKGSVRAPQVYVLPPPEEEMTKKQVTLTCMVTDFMPEDIYVEWTNNGKTELNYKNTEPVLDSDGSYFMYSKLRVEKKNWVERNSYSCSVVHEGLHNHHTTKSFSRTPGK
notes: control

- Kd [3]: 0.35 nM
- koff [3]: 0.000637 s⁻¹
- kon [3]: 2.08e+06 M⁻¹ s⁻¹
- Kd [4]: 0.3 nM
- koff [4]: 0.00112 s⁻¹
- kon [4]: 4.9e+06 M⁻¹ s⁻¹
- Kd [5]: 0.385 nM
- koff [5]: 0.000628 s⁻¹
- kon [5]: 1.63e+06 M⁻¹ s⁻¹
- Kd [6]: 0.3 nM
- Kd [7]: 0.538 nM
- koff [7]: 0.00141 s⁻¹
- kon [7]: 2.62e+06 M⁻¹ s⁻¹
- Kd [8]: 0.396 nM
- koff [8]: 0.00145 s⁻¹
- kon [8]: 4.17e+06 M⁻¹ s⁻¹
- Kd [9]: 0.3 nM
- koff [9]: 0.00117 s⁻¹
- kon [9]: 3.78e+06 M⁻¹ s⁻¹
- Kd [10]: 0.57 nM
- koff [10]: 0.00173 s⁻¹
- kon [10]: 3.18e+06 M⁻¹ s⁻¹
- Median YL1-PE [11]: 2340
- binding result [12]: no binding
- Kd [13]: 1.61 nM
- koff [13]: 0.00296 s⁻¹
- kon [13]: 1.86e+06 M⁻¹ s⁻¹
- Kd [14]: 3.08 nM
- koff [14]: 0.00226 s⁻¹
- kon [14]: 734000 M⁻¹ s⁻¹
- koff [15]: 0.000536 s⁻¹
- kon [15]: 1.52e+06 M⁻¹ s⁻¹
B2: P3A1-[G4S]5-P3A1 his myc (VNAR)
chain: TRVDQTPRTATKETGESLTINCVLTDTSYGLYSTSWFRKNPGTTDWERMSIGGRYVESVNKGAKSFSLRIKDLTVADSATYYCKAREARHPWLRQWYDGAGTVLTVNGGGGSGGGGSGGGGSGGGGSGGGGSTRVDQTPRTATKETGESLTINCVLTDTSYGLYSTSWFRKNPGTTDWERMSIGGRYVESVNKGAKSFSLRIKDLTVADSATYYCKAREARHPWLRQWYDGAGTVLTVNQASGAHHHHHHGAEFEQKLISEEDL
notes: VNAR homodimer by genetic fusion; also called P3A1-P3A1; P3A1 dimer

- binding result (human serum albumin): binds
B3: BA11-2V HisMyc (VNAR)
chain: TRVDQSPSSLSASVGDRVTITCVLTDTSYPLYSTYWYRKNPGSSNKEQISISGRYSESVNKGTKSFTLTISSLQPEDSATYYCRAMSTNIWTGDGAGTKVEIKGGGGSGGGGSGGGGSGGGGSGGGGSTRVDQTPRTATKETGESLTINCVLTDTSYGLYSTSWFRKNPGTTDWERMSIGGRYVESVNKGAKSFSLRIKDLTVADSATYYCKAQSLAISTRSYWYDGAGTVLTVNQASGAHHHHHHGAEFEQKLISEEDL
